Results reported in the supplement of paper PMC9112550, “Optimization of the antimicrobial peptide Bac7 by deep mutational scanning” (BMC Biology, 2022).

Each sequence was assayed on Escherichia coli TOP10 (assay: shrunken log2 fold change of peptide-encoding DNA abundance (4.5 h post-induction vs induction); higher = less antimicrobial activity (less host growth inhibition)). Conditions: time post-induction: 4.5 h; library: site-saturation at positions 5, 18, 19, 20.
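Note: peptides expressed intracellularly from a pBAD plasmid library in pooled LB shake-flask culture, induced with 0.3% L-arabinose, DNA abundance read by NGS, three biological replicates, DESeq2 with apeglm shrinkage.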

Question: How did the “shrunken log2 fold change” value turn out when RRIRKRPPRLPRPRPRPCSTPRP was run?
Answer: 0.0274

Question: Which “shrunken log2 fold change” value does the source give for RRIRPRPPRLPRPRPRPIQRPRP here?
Answer: 0.364

Question: For RRIRTRPPRLPRPRPRPFANPRP, which “shrunken log2 fold change” value is on record?
Answer: -0.116

Question: How did the “shrunken log2 fold change” value turn out when RRIRKRPPRLPRPRPRPMIWPRP was run?
Answer: -0.00177

Question: With RRIRRRPPRLPRPRPRPEFSPRP as the sequence, how does the “shrunken log2 fold change” value read?
Answer: 0.0744

Question: RRIRGRPPRLPRPRPRPENNPRP was tested. Which “shrunken log2 fold change” value did it give?
Answer: 0.502

Question: Which “shrunken log2 fold change” value does the source give for RRIRTRPPRLPRPRPRPHMHPRP here?
Answer: -0.543

Question: For RRIRSRPPRLPRPRPRPSMGPRP, which “shrunken log2 fold change” value is on record?
Answer: -0.0521

Question: Which “shrunken log2 fold change” value does the source give for RRIRCRPPRLPRPRPRPHKVPRP here?
Answer: -0.446

Question: How did the “shrunken log2 fold change” value turn out when RRIRIRPPRLPRPRPRPSCMPRP was run?
Answer: -0.637

Question: Which “shrunken log2 fold change” value does the source give for RRIRERPPRLPRPRPRPANSPRP here?
Answer: -0.0581

Question: For RRIRYRPPRLPRPRPRPTLLPRP, which “shrunken log2 fold change” value is on record?
Answer: -0.703

Question: RRIRDRPPRLPRPRPRPMTAPRP was tested. Which “shrunken log2 fold change” value did it give?
Answer: -0.0214

Question: For RRIRARPPRLPRPRPRPYPFPRP, which “shrunken log2 fold change” value is on record?
Answer: -0.63

Question: With RRIRHRPPRLPRPRPRPYENPRP as the sequence, how does the “shrunken log2 fold change” value read?
Answer: -0.0765

Question: How did the “shrunken log2 fold change” value turn out when RRIRARPPRLPRPRPRPLKMPRP was run?
Answer: 0.283

Question: For RRIRPRPPRLPRPRPRPMKEPRP, which “shrunken log2 fold change” value is on record?
Answer: 0.104

Question: Which “shrunken log2 fold change” value does the source give for RRIRDRPPRLPRPRPRPHADPRP here?
Answer: -0.0841

Question: RRIRMRPPRLPRPRPRPVQIPRP was tested. Which “shrunken log2 fold change” value did it give?
Answer: 0.378

Question: With RRIRGRPPRLPRPRPRPESSPRP as the sequence, how does the “shrunken log2 fold change” value read?
Answer: 1.26

Question: With RRIRERPPRLPRPRPRPRPFPRP as the sequence, how does the “shrunken log2 fold change” value read?
Answer: -0.0965

Question: Which “shrunken log2 fold change” value does the source give for RRIRSRPPRLPRPRPRPVMYPRP here?
Answer: -0.0786

Question: With RRIRIRPPRLPRPRPRPVQQPRP as the sequence, how does the “shrunken log2 fold change” value read?
Answer: -0.168

Question: With RRIRKRPPRLPRPRPRPSEWPRP as the sequence, how does the “shrunken log2 fold change” value read?
Answer: 0.212

Question: How did the “shrunken log2 fold change” value turn out when RRIRVRPPRLPRPRPRPKLNPRP was run?
Answer: -0.212

Question: How did the “shrunken log2 fold change” value turn out when RRIRSRPPRLPRPRPRPTPDPRP was run?
Answer: 0.441

Question: RRIRIRPPRLPRPRPRPGHQPRP was tested. Which “shrunken log2 fold change” value did it give?
Answer: -0.00431

Question: How did the “shrunken log2 fold change” value turn out when RRIRNRPPRLPRPRPRPRTYPRP was run?
Answer: -0.571

Question: RRIRSRPPRLPRPRPRPEREPRP was tested. Which “shrunken log2 fold change” value did it give?
Answer: -0.0693

Question: For RRIRIRPPRLPRPRPRPDGGPRP, which “shrunken log2 fold change” value is on record?
Answer: -0.446

Question: How did the “shrunken log2 fold change” value turn out when RRIRCRPPRLPRPRPRPPRYPRP was run?
Answer: 0.753

Question: RRIRFRPPRLPRPRPRPCNYPRP was tested. Which “shrunken log2 fold change” value did it give?
Answer: -0.72

Question: How did the “shrunken log2 fold change” value turn out when RRIRVRPPRLPRPRPRPASPPRP was run?
Answer: 0.102

Question: For RRIRPRPPRLPRPRPRPNHVPRP, which “shrunken log2 fold change” value is on record?
Answer: -0.532

Question: RRIRNRPPRLPRPRPRPNINPRP was tested. Which “shrunken log2 fold change” value did it give?
Answer: -0.638

Question: RRIRTRPPRLPRPRPRPPQQPRP was tested. Which “shrunken log2 fold change” value did it give?
Answer: 0.211

Question: How did the “shrunken log2 fold change” value turn out when RRIRHRPPRLPRPRPRPEAFPRP was run?
Answer: -0.0165

Question: How did the “shrunken log2 fold change” value turn out when RRIRARPPRLPRPRPRPTFWPRP was run?
Answer: 0.445

Question: With RRIRSRPPRLPRPRPRPPDYPRP as the sequence, how does the “shrunken log2 fold change” value read?
Answer: -0.0864

Question: Which “shrunken log2 fold change” value does the source give for RRIRNRPPRLPRPRPRPRHHPRP here?
Answer: -0.246

Question: Which “shrunken log2 fold change” value does the source give for RRIRERPPRLPRPRPRPVIDPRP here?
Answer: -0.0264

Question: RRIRHRPPRLPRPRPRPCKNPRP was tested. Which “shrunken log2 fold change” value did it give?
Answer: -0.444

Question: How did the “shrunken log2 fold change” value turn out when RRIRVRPPRLPRPRPRPAFKPRP was run?
Answer: 0.086

Question: RRIRYRPPRLPRPRPRPGMHPRP was tested. Which “shrunken log2 fold change” value did it give?
Answer: -0.339

Question: Which “shrunken log2 fold change” value does the source give for RRIRCRPPRLPRPRPRPQVIPRP here?
Answer: -0.386

Question: For RRIRKRPPRLPRPRPRPGTQPRP, which “shrunken log2 fold change” value is on record?
Answer: 0.114

Question: Which “shrunken log2 fold change” value does the source give for RRIRERPPRLPRPRPRPHKAPRP here?
Answer: -0.0142

Question: With RRIRSRPPRLPRPRPRPLFFPRP as the sequence, how does the “shrunken log2 fold change” value read?
Answer: -0.172

Question: With RRIRRRPPRLPRPRPRPCLIPRP as the sequence, how does the “shrunken log2 fold change” value read?
Answer: -0.38

Question: For RRIRPRPPRLPRPRPRPHFWPRP, which “shrunken log2 fold change” value is on record?
Answer: 0.482

Question: With RRIRARPPRLPRPRPRPSGCPRP as the sequence, how does the “shrunken log2 fold change” value read?
Answer: 0.0438

Question: With RRIRFRPPRLPRPRPRPSYKPRP as the sequence, how does the “shrunken log2 fold change” value read?
Answer: -0.819

Question: How did the “shrunken log2 fold change” value turn out when RRIRWRPPRLPRPRPRPYDIPRP was run?
Answer: -0.00748

Question: How did the “shrunken log2 fold change” value turn out when RRIRWRPPRLPRPRPRPFLVPRP was run?
Answer: -0.293

Question: Which “shrunken log2 fold change” value does the source give for RRIRYRPPRLPRPRPRPWCCPRP here?
Answer: -0.207

Question: RRIRGRPPRLPRPRPRPRVGPRP was tested. Which “shrunken log2 fold change” value did it give?
Answer: 1.02

Question: For RRIRPRPPRLPRPRPRPNCEPRP, which “shrunken log2 fold change” value is on record?
Answer: 0.117

Question: Which “shrunken log2 fold change” value does the source give for RRIRTRPPRLPRPRPRPGKNPRP here?
Answer: -0.24

Question: How did the “shrunken log2 fold change” value turn out when RRIRERPPRLPRPRPRPQDEPRP was run?
Answer: -0.941

Question: How did the “shrunken log2 fold change” value turn out when RRIRGRPPRLPRPRPRPNSAPRP was run?
Answer: 0.749

Question: RRIRSRPPRLPRPRPRPRMNPRP was tested. Which “shrunken log2 fold change” value did it give?
Answer: 0.079

Question: For RRIRDRPPRLPRPRPRPYNRPRP, which “shrunken log2 fold change” value is on record?
Answer: -0.361

Question: Which “shrunken log2 fold change” value does the source give for RRIRYRPPRLPRPRPRPCQLPRP here?
Answer: -0.00957

Question: RRIRWRPPRLPRPRPRPHMPPRP was tested. Which “shrunken log2 fold change” value did it give?
Answer: -0.768

Question: With RRIRRRPPRLPRPRPRPSERPRP as the sequence, how does the “shrunken log2 fold change” value read?
Answer: -0.0993

Question: RRIRIRPPRLPRPRPRPQQIPRP was tested. Which “shrunken log2 fold change” value did it give?
Answer: -0.552

Question: How did the “shrunken log2 fold change” value turn out when RRIRCRPPRLPRPRPRPIMSPRP was run?
Answer: -0.128

Question: With RRIRARPPRLPRPRPRPCGGPRP as the sequence, how does the “shrunken log2 fold change” value read?
Answer: 0.425

Question: With RRIRRRPPRLPRPRPRPEHHPRP as the sequence, how does the “shrunken log2 fold change” value read?
Answer: 0.202

Question: How did the “shrunken log2 fold change” value turn out when RRIRPRPPRLPRPRPRPCMYPRP was run?
Answer: -0.226

Question: Which “shrunken log2 fold change” value does the source give for RRIRYRPPRLPRPRPRPSDPPRP here?
Answer: -0.374

Question: Which “shrunken log2 fold change” value does the source give for RRIRTRPPRLPRPRPRPHKRPRP here?
Answer: -0.0155

Question: For RRIRERPPRLPRPRPRPSNYPRP, which “shrunken log2 fold change” value is on record?
Answer: -1.12

Question: Which “shrunken log2 fold change” value does the source give for RRIRIRPPRLPRPRPRPSHDPRP here?
Answer: -0.527

Question: With RRIRDRPPRLPRPRPRPYRCPRP as the sequence, how does the “shrunken log2 fold change” value read?
Answer: -0.0315
